# Measurements from patent US20200148774A1 (Genentech, published 2020).
# T1: recombinant cynomolgus CLL-1 extracellular domain (ECD, amino acids 65-265) fused to an N-terminal Flag (cynomolgus monkey)
# T1 construct: Construct stated for the immunogen; also called CynoCLL-1 Flag; cynoCLL-1
# T1 chain: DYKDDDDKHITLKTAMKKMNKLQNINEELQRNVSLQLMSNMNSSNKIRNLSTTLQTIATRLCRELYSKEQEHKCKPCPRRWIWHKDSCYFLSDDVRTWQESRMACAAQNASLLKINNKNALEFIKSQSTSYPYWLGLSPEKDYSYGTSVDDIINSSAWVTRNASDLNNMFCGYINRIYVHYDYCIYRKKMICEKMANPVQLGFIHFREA
# T2: recombinant human CLL-1 extracellular domain (ECD, amino acids 65-265) fused to an N-terminal Flag (human, UniProt Q5QGZ9 65-265)
# T2 construct: The construct and the K244Q SNP are stated for the immunogen; they are not written as a piece; also called huCLL-1-Flag; huCLL-1
# T2 chain: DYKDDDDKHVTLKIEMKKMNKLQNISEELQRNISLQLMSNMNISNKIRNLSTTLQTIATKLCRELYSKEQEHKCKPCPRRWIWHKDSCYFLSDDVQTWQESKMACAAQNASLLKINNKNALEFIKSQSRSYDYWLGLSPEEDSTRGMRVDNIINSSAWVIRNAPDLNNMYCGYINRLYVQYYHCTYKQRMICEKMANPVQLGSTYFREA
# B1: 6E7.L4H1eE54 (antibody, V domains shown)
# VH: EVQLVQSGAEVKKPGASVKVSCKASGYSFTDYYMHWVRQAPGQGLEWIGRINPYEGAAFYSQNFKDRVTLTVDTSTSTAYLELSSLRSEDTAVYYCAIERGADLEGYAMDYWGQGTLVTVSS
# VL: DIQMTQSPSSLSASVGDRVTITCRASQSVSTSSYNYMHWYQQKPGKPPKLLIKYASNLESGVPSRFSGSGSGTDFTLTISSLQPEDFATYYCQHSWEIPLTFGQGTKVEIK
# notes: IgG
# B2: 6E7.L4H1eS54 (antibody, V domains shown)
# VH: EVQLVQSGAEVKKPGASVKVSCKASGYSFTDYYMHWVRQAPGQGLEWIGRINPYSGAAFYSQNFKDRVTLTVDTSTSTAYLELSSLRSEDTAVYYCAIERGADLEGYAMDYWGQGTLVTVSS
# VL: DIQMTQSPSSLSASVGDRVTITCRASQSVSTSSYNYMHWYQQKPGKPPKLLIKYASNLESGVPSRFSGSGSGTDFTLTISSLQPEDFATYYCQHSWEIPLTFGQGTKVEIK
# notes: IgG
# B3: 21C9.L2H3S54 (antibody, V domains shown)
# VH: EVQLVQSGAEVKKPGASVKVSCKASGYTFTDYYLDWVRQAPGQGLEWIGRVNPYSGGTIYNQKFKGRVTLTRDTSTSTAYLELSSLRSEDTAVYYCARDHYRYDPLLDYWGQGTLVTVSS
# VL: DIQMTQSPSSLSASVGDRVTITCKASQDVSTAVAWFQQKPGKAPKLLIYSPSYRYTGVPSRFSGSGSGTDFTLTISSLQPEDFATYYCQQLYSTPYTFGQGTKVEIK
# B4: 21C9.L2H3A54 (antibody, V domains shown)
# VH: EVQLVQSGAEVKKPGASVKVSCKASGYTFTDYYLDWVRQAPGQGLEWIGRVNPYAGGTIYNQKFKGRVTLTRDTSTSTAYLELSSLRSEDTAVYYCARDHYRYDPLLDYWGQGTLVTVSS
# VL: DIQMTQSPSSLSASVGDRVTITCKASQDVSTAVAWFQQKPGKAPKLLIYSPSYRYTGVPSRFSGSGSGTDFTLTISSLQPEDFATYYCQQLYSTPYTFGQGTKVEIK
# B5: 21C9.L2H3E54 (antibody, V domains shown)
# VH: EVQLVQSGAEVKKPGASVKVSCKASGYTFTDYYLDWVRQAPGQGLEWIGRVNPYEGGTIYNQKFKGRVTLTRDTSTSTAYLELSSLRSEDTAVYYCARDHYRYDPLLDYWGQGTLVTVSS
# VL: DIQMTQSPSSLSASVGDRVTITCKASQDVSTAVAWFQQKPGKAPKLLIYSPSYRYTGVPSRFSGSGSGTDFTLTISSLQPEDFATYYCQQLYSTPYTFGQGTKVEIK
# B6: 21C9.L2H3D54 (antibody, V domains shown)
# VH: EVQLVQSGAEVKKPGASVKVSCKASGYTFTDYYLDWVRQAPGQGLEWIGRVNPYDGGTIYNQKFKGRVTLTRDTSTSTAYLELSSLRSEDTAVYYCARDHYRYDPLLDYWGQGTLVTVSS
# VL: DIQMTQSPSSLSASVGDRVTITCKASQDVSTAVAWFQQKPGKAPKLLIYSPSYRYTGVPSRFSGSGSGTDFTLTISSLQPEDFATYYCQQLYSTPYTFGQGTKVEIK
# What was measured:
# [1] = target: T1, recombinant cynomolgus CLL-1 …; assay: SPR (Biacore T200), IgG captured by anti-human Fc, CLL-1 as analyte
# [2] = target: T2, recombinant human CLL-1 extracellular …; assay: as above
Binder,Kd [1],koff [1],kon [1],Kd [2],koff [2],kon [2]
B1,4.26 nM,0.00283 s⁻¹,664000 M⁻¹ s⁻¹,5.09 nM,0.00248 s⁻¹,488000 M⁻¹ s⁻¹
B2,6.37 nM,0.00327 s⁻¹,513000 M⁻¹ s⁻¹,14.1 nM,0.0072 s⁻¹,510000 M⁻¹ s⁻¹
B3,5670 nM,0.0207 s⁻¹,3660 M⁻¹ s⁻¹,286 nM,0.0405 s⁻¹,142000 M⁻¹ s⁻¹
B4,48200 nM,0.0215 s⁻¹,445 M⁻¹ s⁻¹,622 nM,0.0692 s⁻¹,111000 M⁻¹ s⁻¹
B5,49600 nM,0.0371 s⁻¹,748 M⁻¹ s⁻¹,862 nM,0.0882 s⁻¹,102000 M⁻¹ s⁻¹
B6,217 nM,0.00885 s⁻¹,40700 M⁻¹ s⁻¹,–,–,–
